Each block holds one substance with its values, some of them ahead of it.
What was measured:
[1] = biological target: IL-2Rβγ subunits on U2OS cells; assay: cell-based or functional assay
[2] = biological target: IL-2Rαβ subunits on U2OS cells; assay: cell-based or functional assay
[3] = biological target: Rhesus IL-2Rβγ on CD8+ T and NK cells in whole blood (rhesus monkey)
[4] = biological target: Cynomolgus IL-2Rα, polyhistidine-tagged (cynomolgus) (UniProt H6WS54); assay: SPR (Biacore T200), ratio to human IL-2Rα
[5] = biological target: Rhesus IL-2Rα, polyhistidine-tagged (rhesus) (UniProt Q5MNY4); assay: SPR (Biacore T200), ratio to human IL-2Rα
Chain of Rhesus IL-2Rα, polyhistidine-tagged (rhesus) (Q5MNY4 22-240 limits assumed): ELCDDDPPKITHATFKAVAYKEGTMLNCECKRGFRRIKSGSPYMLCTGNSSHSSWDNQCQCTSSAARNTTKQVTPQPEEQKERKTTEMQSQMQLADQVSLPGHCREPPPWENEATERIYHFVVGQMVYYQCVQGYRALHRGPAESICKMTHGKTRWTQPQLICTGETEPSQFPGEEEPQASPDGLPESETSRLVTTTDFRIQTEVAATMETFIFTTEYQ

[6] = biological target: Human IL-2Rα, polyhistidine-tagged (human) (UniProt P01589); assay: SPR (Biacore T200), ratio to human IL-2Rα
Chain of Human IL-2Rα, polyhistidine-tagged (human) (P01589 22-213 limits assumed): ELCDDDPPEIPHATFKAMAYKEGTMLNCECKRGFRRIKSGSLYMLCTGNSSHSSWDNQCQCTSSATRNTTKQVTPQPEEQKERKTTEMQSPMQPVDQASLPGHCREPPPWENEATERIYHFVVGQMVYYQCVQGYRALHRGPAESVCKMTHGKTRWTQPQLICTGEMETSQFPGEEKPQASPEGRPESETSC

[7] = biological target: Rat IL-2Rα, polyhistidine-tagged (rat) (UniProt P26897); assay: SPR (Biacore T200), ratio to human IL-2Rα
Chain of Rat IL-2Rα, polyhistidine-tagged (rat) (P26897 22-235 limits assumed): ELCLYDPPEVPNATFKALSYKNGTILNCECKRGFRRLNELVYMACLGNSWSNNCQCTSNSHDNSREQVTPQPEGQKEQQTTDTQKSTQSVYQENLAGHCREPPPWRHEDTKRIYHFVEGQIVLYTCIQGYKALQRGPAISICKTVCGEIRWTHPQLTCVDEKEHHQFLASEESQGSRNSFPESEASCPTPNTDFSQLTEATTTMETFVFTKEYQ

[8] = biological target: Mouse IL-2Rα, polyhistidine-tagged (mouse) (UniProt P01590); assay: SPR (Biacore T200), ratio to human IL-2Rα
Chain of Mouse IL-2Rα, polyhistidine-tagged (mouse) (P01590 22-236 limits assumed): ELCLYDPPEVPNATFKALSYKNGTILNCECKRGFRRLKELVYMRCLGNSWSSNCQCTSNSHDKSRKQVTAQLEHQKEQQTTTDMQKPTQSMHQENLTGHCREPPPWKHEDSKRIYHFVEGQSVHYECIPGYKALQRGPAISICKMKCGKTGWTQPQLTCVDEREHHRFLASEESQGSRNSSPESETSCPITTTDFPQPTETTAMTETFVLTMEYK

[9] = biological target: Human IL-2Rβγ on CD8+ T and NK cells in whole blood (human) (UniProt P14784)
Chain of Human IL-2Rβγ on CD8+ T and NK cells in whole blood (human) (P14784 27-551, chain 1 of 2): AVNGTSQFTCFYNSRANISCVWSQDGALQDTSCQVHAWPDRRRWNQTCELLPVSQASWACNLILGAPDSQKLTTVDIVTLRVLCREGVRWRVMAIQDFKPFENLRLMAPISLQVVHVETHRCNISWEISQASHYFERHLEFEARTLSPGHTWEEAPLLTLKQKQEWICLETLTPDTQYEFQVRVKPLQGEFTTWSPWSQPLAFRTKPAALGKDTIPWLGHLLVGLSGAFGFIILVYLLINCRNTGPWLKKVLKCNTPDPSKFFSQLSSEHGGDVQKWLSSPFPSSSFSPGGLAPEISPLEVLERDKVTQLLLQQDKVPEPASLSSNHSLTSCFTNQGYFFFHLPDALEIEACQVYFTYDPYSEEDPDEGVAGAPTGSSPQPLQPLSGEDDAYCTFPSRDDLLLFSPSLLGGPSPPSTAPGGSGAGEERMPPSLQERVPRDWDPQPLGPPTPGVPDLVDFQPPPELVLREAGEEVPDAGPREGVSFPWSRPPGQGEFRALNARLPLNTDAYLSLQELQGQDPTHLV
Chain of Human IL-2Rβγ on CD8+ T and NK cells in whole blood (human) (P31785 23-369, chain 2 of 2, further chain): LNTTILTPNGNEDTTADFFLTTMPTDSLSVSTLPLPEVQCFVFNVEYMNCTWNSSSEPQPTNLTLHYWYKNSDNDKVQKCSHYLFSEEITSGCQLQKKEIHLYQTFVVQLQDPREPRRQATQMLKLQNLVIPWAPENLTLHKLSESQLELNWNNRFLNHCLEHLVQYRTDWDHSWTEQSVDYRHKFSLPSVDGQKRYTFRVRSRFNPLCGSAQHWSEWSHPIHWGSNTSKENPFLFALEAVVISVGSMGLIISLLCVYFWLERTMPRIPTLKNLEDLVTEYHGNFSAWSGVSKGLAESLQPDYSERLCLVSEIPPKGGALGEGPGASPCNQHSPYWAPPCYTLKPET

[10] = biological target: Human IL-2Rβγ on CD8+ T and NK cells in whole blood (human) (UniProt P14784); remark: listed apart in the source
[11] = biological target: Cynomolgus IL-2Rα, polyhistidine-tagged (cynomolgus) (UniProt H6WS54); assay: SPR (Biacore T200), His-tagged receptor
[12] = biological target: Rhesus IL-2Rα, polyhistidine-tagged (rhesus) (UniProt Q5MNY4); assay: SPR (Biacore T200), His-tagged receptor
[13] = biological target: Human IL-2Rβ, polyhistidine-tagged (human) (UniProt P14784); assay: SPR (Biacore T200), His-tagged receptor
Chain of Human IL-2Rβ, polyhistidine-tagged (human) (P14784 27-239 limits assumed): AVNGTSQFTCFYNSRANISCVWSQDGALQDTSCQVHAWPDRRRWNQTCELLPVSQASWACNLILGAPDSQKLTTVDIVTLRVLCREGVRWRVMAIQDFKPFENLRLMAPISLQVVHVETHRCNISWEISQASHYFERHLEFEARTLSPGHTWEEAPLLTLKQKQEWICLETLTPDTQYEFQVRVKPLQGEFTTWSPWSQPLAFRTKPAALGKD

[14] = biological target: Cynomolgus/Rhesus IL-2Rβ, polyhistidine-tagged (cynomolgus/rhesus) (UniProt Q38J85); assay: SPR (Biacore T200), His-tagged receptor
Chain of Cynomolgus/Rhesus IL-2Rβ, polyhistidine-tagged (cynomolgus/rhesus) (Q38J85 27-240 limits assumed): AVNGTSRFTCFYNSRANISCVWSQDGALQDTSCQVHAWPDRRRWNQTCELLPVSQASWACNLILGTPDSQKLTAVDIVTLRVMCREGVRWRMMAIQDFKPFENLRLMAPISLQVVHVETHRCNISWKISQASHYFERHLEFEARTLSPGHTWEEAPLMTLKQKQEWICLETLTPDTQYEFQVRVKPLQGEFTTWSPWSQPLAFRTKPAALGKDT

[15] = biological target: Human IL-2Rα, polyhistidine-tagged (human) (UniProt P01589); assay: SPR (Biacore T200), His-tagged receptor
[16] = biological target: Rat IL-2Rα, polyhistidine-tagged (rat) (UniProt P26897); assay: SPR (Biacore T200), His-tagged receptor
[17] = biological target: Mouse IL-2Rα, polyhistidine-tagged (mouse) (UniProt P01590); assay: SPR (Biacore T200), His-tagged receptor
[18] = biological target: Human IL-2Rβ, polyhistidine-tagged (human) (UniProt P14784); assay: SPR (Biacore T200), ratio to human IL-2Rβ
[19] = biological target: Cynomolgus/Rhesus IL-2Rβ, polyhistidine-tagged (cynomolgus/rhesus) (UniProt Q38J85); assay: SPR (Biacore T200), ratio to human IL-2Rβ
[20] = biological target: Rhesus IL-2Rβγ on CD8+ T and NK cells in whole blood (rhesus monkey); remark: listed apart in the source

Ave. EC50 of engaging IL-2Rβγ subunits (receptor engagement study, N = 3) [1]: 3.5 nM | Ave. EC50 of engaging IL-2Rαβ subunits (receptor engagement study, N = 3) [2]: 7 nM
Substance: R38Q/Y45F-IL-2 Fc, bivalent (Fc fusion)

Ave. EC50 of engaging IL-2Rβγ subunits (receptor engagement study, N = 3) [1]: 2 nM | Ave. EC50 of engaging IL-2Rαβ subunits (receptor engagement study, N = 3) [2]: 400 nM
Substance: R38Q/Y45F-IL-2 Fc, monovalent (from UniProt P01857 104-329) (Fc fusion)

EC50; pSTAT5 normalized gMFI in CD8 cells, rhesus whole blood (Rh donor 20-1068), flow cytometry [3]: 0.00405 µM | KD/KD (hu) [4]: 1.1 | KD/KD (hu) [5]: 1.8 | KD/KD (hu) [6]: 1 | KD/KD (hu) [7]: 3.1 | KD/KD (hu) [8]: 1 | EC50; pSTAT5 normalized gMFI in NK cells, human whole blood (Hu donor 2), flow cytometry [9]: 0.35 nM | EC50; pSTAT5 normalized gMFI in CD8 cells, human whole blood (Hu donor 2), flow cytometry [10]: 0.00141 µM | Kd [11]: 30 nM | Kd [12]: 49 nM | Kd [13]: 940 nM | Kd [14]: 1300 nM | Kd [15]: 28 nM | Kd [16]: 87 nM | Kd [17]: 29 nM | KD/KD (hu) [18]: 1 | KD/KD (hu) [19]: 1.4 | EC50; pSTAT5 normalized gMFI in NK cells, rhesus whole blood (Rh donor 20-1068), flow cytometry [20]: 0.00244 µM
Substance: WT-IL-2 Fc (from UniProt P01857 104-329) (Fc fusion)

Ave. EC50 of engaging IL-2Rβγ subunits (receptor engagement study, N = 3) [1]: 2.3 nM | Ave. EC50 of engaging IL-2Rαβ subunits (receptor engagement study, N = 3) [2]: 30 nM
Substance: Y45R-IL-2 Fc, bivalent (Fc fusion)
